Experimental findings from patent publication US20220041724A1 (GRAND DECADE DEVELOPMENTS, published 2022) are described below.

Experiment [1] deals with T1, Recombinant mouse CTLA-4/human IgG1 chimera (R&D Systems) (mouse; human, UniProt P09793 36-162, limits assumed).
T1 construct: Bought reagent; also called recombinant mCTLA-4/Fc; recombinant CTLA4 protein; not shown: human IgG1 portion (Fc) of the bought chimera
The experiment can be described thus: ELISA: mouse CTLA-4/human IgG1 chimera coated at 1 or 5 µg/mL; HEK293 conditioned medium with 9H10-scFv at 168 ng/mL; anti-mouse IgG-HRP, OD 450 nm. The protocol:
(§1) Plasmid encoded anti-CTLA4 scFv bound to recombinant CTLA4 protein. Transfection-derived secreted anti-CTLA4 (scFv) were evaluated for their binding capacity to CTLA-4. Recombinant mouse CTLA-4/human IgG1 chimera (R&D Systems) were immobilized in 96-well plates (1 or 5 μg/mL, or […]) for 18 hr at room temperature. Wells were washed three times with 0.1% Tween in PBS and blocked with 1% BSA in PBS. Conditioned medium from HEK293 cells transfected with 9H10-scFv (168 ng/mL) or 9D9-scFv (130 ng/mL) was added to the wells, and incubated for 2 h at room temperature. Wells were washed three times, and anti-mouse IgG-horseradish peroxidase (Jackson ImmunoResearch, 0.2 μg/mL) were added and incubated for 1.5 hours at room temperature. Wells were again washed three times, developed with HRP Substrate Reagent (R&D Systems) and stopped with Stop Solution, 2N sulfuric acid (R&D Systems). Optical density of each well was measured at 450 nm.

The target in experiment [2] is T1, Recombinant mouse CTLA-4/human IgG1 …. The experiment can be described thus: ELISA: mouse CTLA-4/human IgG1 chimera coated at 1 or 5 µg/mL; HEK293 conditioned medium with 9D9-scFv at 130 ng/mL; anti-mouse IgG-HRP, OD 450 nm. The protocol: as §1
On the technique in general: In an ELISA, binding on a coated surface is turned into a signal by an enzyme label.

B1: 9H10-scFv (Igκ-HA-9H10 VLC-Linker-9H10 VHC-Linker-mIgG1 Fc domain, anti-CTLA-4 scFv) (scFv)
scFv: YPYDVPDYAGAQPARSDIVMTQSPSSLAVSVGEKVTISCKSSQSLLYGSSHYLAWYQQKVGQSPKLLIYWASTRHTGIPDRFIGSGSGTDFTLSLSSVQAEDMADYFCQQYFSTPWTFGAGTRVEIKSGSGGGSGGGSGGGSQVQLLQSESELVKPGASVKLSCKTSGYTFTDYYIHWVKQKPGQGLEWIGLINPNNDGTNYNQKFQGKATLTADKSSSTAYMELNSLTFDDSVIYFCARASSRLRMARTTSDYYAMDYWGQGIQVTVSSVDSSGSGGCKPCICTVPEVSSVFIFPPKPKDVLTITLTPKVTCVVVDISKDDPEVQFSWFVDDVEVHTAQTQPREEQFNSTFRSVSELPIMHQDWLNGKEFKCRVNSAAFPAPIEKTISKTKGRPKAPQVYTIPPPKEQMAKDKVSLTCMITDFFPEDITVEWQWNGQPAENYKNTQPIMDTDGSYFVYSKLNVQKSNWEAGNTFTCSVLHEGLHNHHTEKSLSHSPGK
notes: scFv (VL-linker-VH) with an N-terminal HA tag, fused to a mouse IgG1 Fc domain; It was secreted into conditioned medium of transfected HEK293 cells; also called plasmid encoded anti-CTLA4 scFv
Take B1: the binding result in experiment [1] is given as “binds”.

B2: 9D9-scFv (Igκ-HA-9D9 VLC-Linker-9D9 VHC-Linker-mIgG1 Fc domain, anti-CTLA-4 scFv) (scFv)
scFv: YPYDVPDYAGAQPARSDIVMTQTTLSLPVSLGDQASISCRSSQSIVHSNGNTYLEWYLQKPGQSPKLLIYKVSNRFSGVPDRFSGSGSGTDFTLKISRVEAEDLGVYYCFQGSHVPYTFGGGTKLEIKRADAAPTVSGSGGGSGGGSGGGSEAKLQESGPVLVKPGASVKMSCKASGYTFTDYYMNWVKQSHGKSLEWIGVINPYNGDTSYNQKFKGKATLTVDKSSSTAYMELNSLTSEDSAVYYCARYYGSWFAYWGQGTLITVSTAKTTPPSVYPLAPVDSSGSGGCKPCICTVPEVSSVFIFPPKPKDVLTITLTPKVTCVVVDISKDDPEVQFSWFVDDVEVHTAQTQPREEQFNSTFRSVSELPIMHQDWLNGKEFKCRVNSAAFPAPIEKTISKTKGRPKAPQVYTIPPPKEQMAKDKVSLTCMITDFFPEDITVEWQWNGQPAENYKNTQPIMDTDGSYFVYSKLNVQKSNWEAGNTFTCSVLHEGLHNHHTEKSLSHSPGK
notes: as for B1
As to B2, the binding result in experiment [2] is on record as “binds”.
